Reference: the nanobody polyreactivity screen of Harvey et al. (2022)

Experiment: yeast display, Sf9 membrane polyspecificity reagent, FACS + sequencing; frameworks hold sequencing errors
Method in brief: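 Polyreactivity labels are assigned by the sorting gate from which each nanobody was recovered. The gates were low and high (top ~1%), set on anti-HA fluorescence for expression and streptavidin fluorescence for reagent binding. Before sorting, galactose-induced (36–48 hours) yeast display cells were stained for 1 hour at 4 °C with 10% biotinylated, detergent-solubilized Sf9 membrane reagent.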

Sequence | polyreactivity (PSR sort gate)
QVQLVESGGGLVQAGGSLRLSCAASGSIFVFYAMGWYRQAPGKERELVASITSSGGSTYYADSVKGRFTISRDNAKNTVYLQMNSLKPEDTAVYYCAARKYRNPYYYRYYYWGQGTQVTVSS | high polyreactivity
HVQLVETGGGLVQAGGSLRLSCAASGRTFDSYTMGWYRQAPGKERELVADITFTGGSTYYADSVKGRFTISRDNAKNTVYLQMNSLKPEATAVYYCNADREYKWYFRYDYWGQGTQVTVSS | low polyreactivity
QVQLVESGGGLVQAGGSLRLSCAASGSTFSYYNMGLYIQATGKERELLAAINRRGDSTYADSVKWRFTISRDNAKNTVYLQMNSLKPEDTAVYDCAADASVGVSGMDYWGQGTQVTVSS | low polyreactivity
QVQLVESGGGLVQAGGSLRLSCAASGRIFKLYAMGWYRQAPGKESELVAAITRRGGSTSYADSVKGRFTISRVNAKNTVYLQMNSLKPEDTSVYYCAASLSPWFTSYYLPYDLGYWGQGTQVTVSS | high polyreactivity
QGQLVESGGGLVQAGGSLRLSCAASGSIFLTNAMGWYRQAPGKEREFVAAIDWGGTITYYADSVKGRFTISRDNAKNTVYLQMNSLKPEDTAVYYCNRVFPPTDYEFDSWGQGTQGTVSS | low polyreactivity
QVQLVESGGGLVQAGGSLRLSCAASGRIFDAKVMGWYRQAPGKERELVAAISASAGSTSYADSVKGRFTISRDNAKNTVYLQMNSLKPEDTSVYYCAADPYQLWHYYYFGMDYWGQGTQVTVSS | low polyreactivity
QVQLVESVGGLVQAGGSLRLSCAASGRTISRNAMGWYRQAPGKERELVAAISASGGRTYYADSVKGRFTISRDNAKNTVYLQMKSLKPEDTEVYFCAASTTGYRYYDYCGQGTQVTVSS | high polyreactivity
QVQLVESGGGLVQAGGSLRLSCAASGRTFRSYAMGWYRQAPGKERELVAAITWGGGRTYYADSVKGRFTISRDNAKNTVYLQMNSLKPEDTAVYYCATRVKFSTSYWLYYWGQGTQVTVSS | high polyreactivity
QVQLVESGGGLVQARGSLRLSCPASGITFARYAMEWSRQAPGKERELVAAISYGGGSTYYADSVKGRFTISRDNAKNTVYLQMNSLKPEDTSVYYCNNVPRKSYGYWGQGTQVTVSS | high polyreactivity
QVQLVESGGGLVQAGGSLRLSCAASGSNFTFNALGWYRQAPGKERELVAAISKSGDRTYADSVKGRFTISRDNAKNTVYLQMNSLKPDDTAVYYCAADFSVSRYDYWGQGTQVTVSS | low polyreactivity
QVQLVESGGGLFQAGGILRLSCAASGIIFWDNAMGWYRQAPGKERELVAAISRSGSRTYYADSVKGRFTISRDNAKNTVYLQMNSLKPEDTAVYYCARRYRARGSMYYWGQGTQVTVSS | high polyreactivity
QVQLVESAGGLVQAGGSLRLSCASSGSTLPYNAMGWYRQAPGKESELVAAISKSGGRTYYADSVKGRFTISRDNAKNSVYLQMNSLKPEDTAVYYCNAGPYLGGGGSSRYLWGQGTQVTVSS | high polyreactivity
QVQLVESGGGLVQAGGSLRLSCAPSGSTFRRNAMGWSRQAPGKERELVAANSGSGGRTYYADSVKGRITISRDNAKNTVYLQMNSMKPEDTAVYYCAARSTVYEFFYYRGWWEYYYWGQGTQVTVSS | low polyreactivity
QVQLVESGGVLVQAGGSLRLSCAASGSIFEPYVMGWYRQPPGKERELVAAIRQSGGSTYYADSVKGRFTISRDNAKNTVYLQMNSLKPEDTAVYYCNAEQNPSGLYDYRGVEGEMGYWRQGTQVTVSS | low polyreactivity
QVQLVESGGGLVQAGGSLRLSCAASGSTLRGNAMGRYRQAPGKVREFVAAISSSGGRTYYADSVKGRFTISRDNAKNTVNLQMTSLNPEDTAVYYCAAARYQYYFSSVPRAYYYWGQGTQVTVSS | high polyreactivity
QVQLVESGGGLVQAGGSLRLSCAASGRTYTYYAMGWYRQAPGKERELVAAISDSGGRTYYADSVKGRFTISRDNAKNTVYLQMNSLKPEDTAVYYCAATTYPYYRFDYWGQGTQVTVSS | high polyreactivity

Sequence | polyreactivity (PSR sort gate)
QVQLVESGGGLVQAGGSLRLSCAASGRTFFDYAMGWYRQAPGKERELVAAITSSGSSTYYADSVKGRFTISRDNAKNTVYLQMNSLKPEDTAVYYCAAGASANKKITSYDYWGQGTQVTVSS | low polyreactivity
QVQLVESGGGLLQAGGSLRVSCAASGSTLVGNTMGWYRQAPGKESELLAAITGVGSTNYADSVKGRFTISRDNAKNSVYLQMNSLKPEDTAVYSCAAEYSYTYIVSYLYDMDYWGQATQVTVSS | low polyreactivity
QVQLVESGGGLVQAGGSLRLSCAASGRTFSNYAMGGYRQAPGKERELVAAISERGGSTYYADSVKGRFTISRDNPKNSVFVQLNSLKPEDTAVYDCNALFRLRAYAEMDYWGQGTQVTVSS | high polyreactivity
QVQLVESAGGLVQAGGSLRLSCAASARTFSAYSMGWYRQAPGKERELVAAISRRGRSTYYADSVKGRFTISRDNAKNTVYLQMTSLKPEDTAVYYCAADVYKQYGYYYWGLGTQVTVSS | high polyreactivity
QVQLVESGGGLVQAGGSLRLSCAASGRIIRWNAMGWYRQAPGKERELVAAITYSSGSTYYADSVKGRFTISRDNAKNTVYLQLNSLKPEDTAVYYCAAYSYGWDYSYDYWGQGTQVNVSS | low polyreactivity
QVQLVESGGGLVQAGGSLRLSCAASGTFYYYAMGWYRPAPGKERELVAAIDYSGGSTYYADSVKGRFTISRDNAKNTVYLQMNSLKPEDTAVYYCAYVSVYDFEYWGQGTQVTVSS | high polyreactivity
QVQLVESGGGLDQAGGSLRLSCAASGSTFRNNAMGWYRQAPGKERELVAAISRGGGSTYYADSVKGRFTISRDNAKNNVYLQMTSLKQDDTAVYDCARRPTGIYDYWGQGTQVTVSS | high polyreactivity
QVQLVESGGGLVQAGGRLRLSCAASGFTFYRYAMGWYRQAPGKVRQLVATISASGGSTYYADSVKGRFTISRDNAKNTVYLQMNSLKPEDTAVYYCAVRYKSWYGFNYWGQGTQVTVSS | high polyreactivity
QVQLVVSGGGLVQAGGSLRLSCAASGITFYYNAMGWYRQAPGKEGEVVAAITRRGGSTYYADSVKGRFTISRDNAKNTVYLQMNSLIPEDTAVYYCAKYIYGYKDSPLGDDYWGQGTQVTVSS | high polyreactivity
QVQLVASGGGLVQAGGSLRLSCAASGSTLDVYAMGWYRQAPGKERELVASISGSGGRTYYADSVKGRFTISRDNAKNTVYLQLNSQNPEDTAVYYCAADVRSYVASRSYRYDYWGQGNQVTVSS | low polyreactivity
HGQLVESGGGLVQAGGSLRLSCAASGVTFSYYAMGWYRQGPGKDRELVAAITSSAGSTYYADSVKGRFTISRDNAKNTVYLQMNSLKPEDSALYYCNAVYSKLNGGYDYWGQGTQVTVSS | low polyreactivity
QVQLVESGGGLVQAGGSLRLSCAASGSTFCINAMGWYRQAPGKERDLVAAISSRGGSTYYADSVKGRFTISRDNAKNTVYLQMNSLKPEDTAVYYCAAEFAVSFYWSWLGQDYNYWGQGTQVTVSS | high polyreactivity
QVQLVESGGGLVQAGGSLRISFAASGFTFNLYAMGWYRQAPGKERELVAAISWSGGRTYYADSVKGRFTISRDNAKNTVYLQMNSLKPEDTAVYYCNAPYWTSKSRFDYWGQGTQVTVSS | low polyreactivity
QVQLVESGGGLVQPGGSLRLSCAASRSIFKVYAMGWYRQEPGKEREFVAAITSSDSNTNYADSVKGRFTISRDNAKNTVYLQMHSLKPEDTAVYYCNARIYNRRYVPHYGFNYWGQGTQVTVSS | low polyreactivity
QVQLVESGGGLVQAGGSLRLSCAASGLIFGRYAMGWYRQAPGKERELVAAITCGTNTNYADSVKGRFTISRDNAKNTVYLQMNSLKPEDTAVYYCGKASGRCSLARGATYSVDYWGQGTQVTVSS | high polyreactivity
